Experimental findings from IntAct's records for PubMed 19759058 are described below.

Sequences and labels used below:
B1: Poly [ADP-ribose] polymerase 1 (Mus musculus), P11103 (parent)
chain: MAEASERLYRVQYAKSGRASCKKCSESIPKDSLRMAIMVQSPMFDGKVPHWYHFSCFWKVGQSIRHPDVEVDGFSELRWDDQQKVKKTAEAGGVAGKGQDGSGGKAEKTLGDFAAEYAKSNRSMCKGCLEKIEKGQMRLSKKMVDPEKPQLGMIDRWYHPTCFVKKRDELGFRPEYSASQLKGFSLLSAEDKEALKKQLPAIKNEGKRKGDEVDGTDEVAKKKSRKETDKYSKLEKALKAQNELIWNIKDELKKACSTNDLKELLIFNQQQVPSGESAILDRVADGMAFGALLPCKECSGQLVFKSDAYYCTGDVTAWTKCMVKTQNPSRKEWVTPKEFREISYLKKLKVKKQDRIFPPESSAPITVHWPLSVTSAPTAVNSSAPADKPLSNMKILTLGKLSQNKDEAKAVIEKLGGKLTGSANKASLCISIKKEVEKMNKKMEEVKEANIRVVSEDFLQDVSASTKSLQDLLSAHSLSPWGAEVKAEPGEVVAPRGKSAAPSKKSKGCFKEEGVNKSEKRMKLTLKGGAAVDPDSGLEHSAHVLEKGGKVFSATLGLVDIVKGTNSYYKLQLLEDDKESRYWIFRSWGRLGTVIGSNKLEQMPSKEEAVEQFMKLYEEKTGNAWHSKNFTKYPKKFYPLEIDYGQDEEAVKKLTVKPGTKSKLPKPVQELVGMIFDVDSMKKALVEYEIDLQKMPLGKLSRRQIQAAYSILSEVQQPVSQGSSESQILDLSNRFYTLIPHDFGMKKPPLLNNADSVQAKVEMLDNLLDIEVAYSLLRGGSDDSSKDPIDVNYEKLKTDIKVVDRDSEEAEVIRKYVKNTHATTHNAYDLEVIDIFKIEREGESQRYKPFRQLHNRRLLWHGSRTTNFAGILSQGLRIAPPEAPVTGYMFGKGIYFADMVSKSANYCHTSQGDPIGLIMLGEVALGNMYELKHASHISKLPKGKHSVKGLGKTTPDPSASITLEGVEVPLGTGIPSGVNDTALLYNEYIVYDIAQVNLKYLLKLKFNFKTSLW
partner: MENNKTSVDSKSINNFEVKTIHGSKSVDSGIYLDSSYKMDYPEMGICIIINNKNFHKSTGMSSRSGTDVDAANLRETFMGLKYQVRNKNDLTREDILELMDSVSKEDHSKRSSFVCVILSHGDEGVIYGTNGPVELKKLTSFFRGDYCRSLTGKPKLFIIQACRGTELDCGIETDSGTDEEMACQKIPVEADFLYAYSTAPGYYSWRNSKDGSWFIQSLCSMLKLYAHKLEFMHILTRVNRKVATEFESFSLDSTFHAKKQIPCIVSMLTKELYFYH

The variants in the assay derive from B1. Particulars: with casp3_mouse Casp3, P70677.
Regarding G210K, the “effect of a mutation on the interaction” value is “decreasing interaction”.
